Test [1] has as its target soluble HPV16 L1 capsomer (human papillomavirus type 16 (HPV16)). The test is described as follows: cryo-EM structure.
The target of test [2] is HPV16 L1 (as in the HPV16L1 binding assays and on pseudovirus psV16) (Human papillomavirus type 16; L1 of …, UniProt J3SRV0). The test is described as follows: cell-based or functional assay.
Sequence of HPV16 L1 (as in the HPV16L1 binding assays and on pseudovirus psV16) (P03101 whole entry): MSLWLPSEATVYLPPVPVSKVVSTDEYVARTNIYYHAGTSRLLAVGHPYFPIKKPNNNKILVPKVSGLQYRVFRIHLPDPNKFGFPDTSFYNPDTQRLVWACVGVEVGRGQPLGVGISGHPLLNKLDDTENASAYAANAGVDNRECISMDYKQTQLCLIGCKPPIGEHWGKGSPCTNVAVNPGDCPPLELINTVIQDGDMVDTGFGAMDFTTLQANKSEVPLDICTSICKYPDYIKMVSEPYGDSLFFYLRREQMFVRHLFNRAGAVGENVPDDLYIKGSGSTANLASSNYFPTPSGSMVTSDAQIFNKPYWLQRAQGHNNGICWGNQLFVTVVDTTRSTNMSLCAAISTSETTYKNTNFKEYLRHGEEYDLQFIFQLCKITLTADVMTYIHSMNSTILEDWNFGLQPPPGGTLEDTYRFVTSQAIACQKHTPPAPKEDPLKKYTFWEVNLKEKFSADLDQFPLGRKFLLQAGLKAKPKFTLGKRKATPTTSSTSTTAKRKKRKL

Molecule soluble HPV16 L1 capsomer (complex) came in with a stoichiometry N in test [1] of 5.

B1: D24.1M01 with the germline CDRL2 (YGN) (antibody, V domains shown)
VH: QVTLRESGPALVKPTQTLTLTCTISGLSLTTSGVCVSWIRQPPGKALEWLALIDWDDDKYYSTSLRTRLTISKDISKNQVVLTMTNMDPVDTATFFCARTRCTSNWGYYFDSWGRGTRVTVSS
VL: QSVLTQPPSVSGAPGQRVTISCTGSASNIGAGYDVHWYQQVPGAAPKLLIYGNSNRPSGVPDRISGSKSGTSASLAISGLQAEDEADYYCQSYDDSLRGWVFGGGTKLTVL
As for B1, the “psV16 neutralization, fold increase of IC50 against the mature antibody” value in test [2] came to 5.3 fold.

What is called stoichiometry N is a count of units in the complex or per binding partner.

The values are drawn from paper PMC12551957, “Human monoclonal antibodies to HPV16 show evidence for common developmental pathways and public epitopes” (PLOS Pathogens, 2025).
